Assay results as given in publication PMC6887548.

Biological target: MCM helicase hexamer (Mcm2-7) (yeast) (UniProt P29469)
Assay: negative-stain EM

- decrease of MO formation against wild type ORC: 50%
Substance: ORC variant lacking the N-terminal 119 amino acids of Orc6, P54784;P32833;P54790;P54791;P50874;P38826
